Assay results taken from paper PMC8192573.

Target: OsBOR3_(∆1–642) (Oryza sativa)
Assay: cryo-EM structure; OsBOR3 (1 mg/mL) in 20 mM Tris (pH 7.5), 150 mM NaCl, 0.75x CMC LMNG on Quantifoil grids; 116,140 particles; 3D refinement with C2 symmetry imposed; 5-6 Å

OsBOR3_(∆1–642) (domain or fragment)
stoichiometry N: 2
